According to patent US6461841B2, “L-amino acid oxidase from Rhodococcus species” (Degussa AG, priority 2000, dated 2002):

Columns and labels:
[1] = Determination of the isoelectric point by isoelectric focusing; type: physicochemical, Rhodococcus opacus; details: carrier ampholytes on agarose, pH range 4-6
Procedure: The isoelectric point of the L-amino acid oxidase was determined using isoelectric focusing with carrier ampholytes on agarose, in a pH range of 4-6. The pI is at pH 4.8. Carboanhydrase, β-lactoglobulin, trypsin inhibitor, glucose oxidase were used as marker proteins.

[2] = Storage stability of the L-amino acid oxidase at 4° C.; type: physicochemical, Rhodococcus opacus; details: several months; 0.7 mg/mL protein; 50 mM glycine NaOH buffer, pH 8.6; sterile conditions
[3] = pH dependence of the oxidation process; type: biochemical, Rhodococcus opacus; details: 80 mM TEA-HCl buffer; for L-alanine, L-phenylalanine and L-leucine
Procedure: The reaction speed of the oxidation of L-amino acids to keto acids in the presence of the L-amino acid oxidase was studied as a function of the pH in the reaction solution. The test batch (200 μL) had the following composition: 10 mM L-amino acid, 25 U/mL peroxidase from horseradish, 80 mM buffer with different pH values and compositions, 0.2 mg/mL o-dianisidine, enzyme in limiting amount.

[4] = Enzyme test of purification fractions with L-ala (o-dianisidine/POX, 450 nm); type: biochemical, Rhodococcus opacus; details: 0.2 M TEA-HCl, pH 7.6, 10 mM L-ala, 30° C.
Procedure: The cells were digested by means of wet grinding with glass beads. For this purpose, the moist bacteria mass (15 g) was suspended in 50 mM TEA-HCl buffer (pH 7.0), so that the concentration of the moist cell mass was 25%. The cell content substances were released from the ice-cooled suspension by means of mechanical digestion using a glass bead mill (SCP disintegrator, Innomed-Konsult AB, Sweden). For this purpose, the grinding container was filled with 100 mL glass beads (diameter 0.3 mm) and the cell suspension. Digestion was carried out at a stirring shaft speed of 3,000 rpm. The cooling mantle was filled with ice water before the start of the run.
15 g moist bacteria mass yielded 45 mL crude extract with a volume activity of 0.035 U/mL and a protein content of 9.4 mg/mL. From this, it can be calculated that approximately 150 units L-amino acid oxidase can be obtained from 10 L fermenter batch.
The enzyme can be purified by means of ion exchange chromatography, hydrophobic interaction chromatography, and chromatography with hydroxyl apatite as the column material. The crude extract was pumped onto a column (h 5.5×diameter 5 cm) packed with MarcoPrep High Q Support Material (Biorad, Hercules, USA), at a flow velocity of 0.2 mnL/min. The ion exchanger had previously been equilibrated with a buffer, which contained 50 mM TEA-HCl, pH 7.0. […]

[5] = Storage stability of the L-amino acid oxidase as a function of the pH; type: physicochemical, Rhodococcus opacus; details: after 100 hours in glycine NaOH buffer at pH 10 and 10.5; room temperature; 24 μg/mL protein
Procedure: c) Storage Stability of the L-amino Acid Oxidase as a Function of the pH L-amino acid oxidase was incubated in 0.2 M buffer of different compositions, at a protein concentration of 24, μg/mL, at room temperature. Afterwards, the residual activity was determined using 0.2 M TEA buffer, pH 7.6, and 10 mM L-ala. […] After 100 hours in glycine NaOH buffer, it was still possible to detect more than 90% activity at pH 10 and 10.5.

B1: L-amino acid oxidase: L-amino acid oxidase (L-AAO) from Rhodococcus opacus DSM 43250, SEQ ID NO: 2, homogeneously purified (protein, listed as Rhodococcus opacus)
chain: AGDLIGKVKGSHSVVVLGGGPAGLCSAFELQKAGYKVTVLEARTRPGGRVWTARGGSEETDLSGETQKCTFSEGHFYNVGATRIPQSHITLDYCRELGVEIQGFGNQNANTFVNYQSDTSLSGQSVTYRAAKADTFGYMSELLKKATDQGALDQVLSREDKDALSEFLSDFGDLSDDGRYLGSSRRGYDSEPGAGLNFGTEKKPFAMQEVIRSGIGRNFSFDFGYDQAMMMFTPVGGMDRIYYAFQDRIGTDNIVFGAEVTSMKNVSEGVTVEYTAGGSKKSITADYAICTIPPHLVGRLQNNLPGDVLTALKAAKPSSSGKLGIEYSRRWWETEDRIYGGASNTDKDISQIMFPYDHYNSDRGVVVAYYSSGKRQEAFESLTHRQRLAKAIAEGSEIHGEKYTRDISSSFSGSWRRTKYSESAWANWAGSGGSHGGAATPEYEKLLEPVDKIYFAGDHLSNAIAWQHGALTSARDVVTHIHERVAQEA
isoelectric point (pI) [1]: 4.8 | storage stability at 4° C. [2]: without any loss of activity | pH optimum [3]: 8.5 | Spec. act. (U/mg) [4]: 4.6 U/mg | Spec. act. (U/mg) ([4]; listed as Hydroxyl apatite pool): 4.61 U/mg | residual activity [5]: more than 90%
